Measurements as given in publication PMC7262597.

Experiments:
Experiment in all cases: GST pull-down (autoradiography, quantified)
[1] = biological target: GST-Atg8a-LDS mutant (Y49A) (UniProt Q9W2S2); conditions: parent: est. 25, read off a plot
GST-Atg8a K46Q = GST-Atg8a K46Q (UniProt Q9W2S2); conditions: percentage binding relative to 10% of the input; 3 independent experiments; parent: est. 25; read off a plot
[2] = biological target: radiolabeled myc-Sequoia-WT; conditions: percentage binding relative to 10% of the input; 3 independent experiments; parent: est. 25; read off a plot
GST-Atg8a-WT = GST-Atg8a-WT (UniProt Q9W2S2); conditions: parent: est. 25, read off a plot
[3] = biological target: radiolabeled GFP-Sequoia-WT; conditions: parent: est. 25; read off a plot
GST-Atg8a K47Q = GST-Atg8a K47Q (UniProt Q9W2S2); conditions: percentage binding relative to 10% of the input; 3 independent experiments; parent: est. 25; read off a plot
GST-Atg8a K46Q Y49A = conditions: percentage binding relative to 10% of the input; 3 independent experiments; parent: est. 25; read off a plot
GST-Atg8a K48Q = GST-Atg8a K48Q (UniProt Q9W2S2); conditions: percentage binding relative to 10% of the input; 3 independent experiments; parent: est. 25; read off a plot
[4] = percentage binding relative to 10% of the input, 3 independent experiments

Chain of GST-Atg8a-LDS mutant (Y49A) (Q9W2S2 entry or part of it Y49A | Y49A): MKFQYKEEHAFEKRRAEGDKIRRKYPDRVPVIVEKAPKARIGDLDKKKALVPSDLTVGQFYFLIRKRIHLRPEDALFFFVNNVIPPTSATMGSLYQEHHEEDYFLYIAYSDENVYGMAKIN
Chain of GST-Atg8a-WT (Q9W2S2 entry or part of it): as the sequence (Q9W2S2 entry or part of it Y49A | Y49A) above, with A49Y counted along it
Chain of GST-Atg8a K47Q (Q9W2S2 entry or part of it K47Q | K47Q): as the sequence (Q9W2S2 entry or part of it Y49A | Y49A) above, with K47Q, A49Y counted along it
Chain of GST-Atg8a K48Q (Q9W2S2 entry or part of it K48Q | K48Q): as the sequence (Q9W2S2 entry or part of it Y49A | Y49A) above, with K48Q, A49Y counted along it
Chain of GST-Atg8a K46Q (Q9W2S2 entry or part of it K46Q | K46Q): as the sequence (Q9W2S2 entry or part of it Y49A | Y49A) above, with K46Q, A49Y counted along it

m9; m1 Sequoia:Y313A; Sequoia:I316A; Atg8a:Y49A
response [1]: 5.6 % of binding

m11; m1 Sequoia:Y313A; Sequoia:I316A; Atg8a:K46Q
response (GST-Atg8a K46Q): 18 % Binding

GST-Atg8a-WT (from UniProt Q9W2S2) K48Q
response [2]: 12 % Binding

radiolabeled GFP-Sequoia-WT Y313A; I316A
response (GST-Atg8a-WT): 14 % of binding

GST-Atg8a-WT (from UniProt Q9W2S2) K46Q; Y49A
response [2]: 3.6 % Binding

GST-Atg8a-WT (from UniProt Q9W2S2) Y49A
response [2]: 2.7 % Binding
response [3]: 8 % of binding

m11; m1 Sequoia:Y313A; Sequoia:I316A; Atg8a:K47Q
response (GST-Atg8a K47Q): 12 % Binding

GST-Atg8a-WT (from UniProt Q9W2S2) K47Q
response [2]: 24 % Binding

m11; m1 Sequoia:Y313A; Sequoia:I316A; Atg8a:K46Q; Atg8a:Y49A
response (GST-Atg8a K46Q Y49A): 3.2 % Binding

GST-Atg8a-WT (from UniProt Q9W2S2) K46Q
response [2]: 25 % Binding

radiolabeled myc-Sequoia-WT Y313A; I316A
response (GST-Atg8a-WT; [4]): 14 % Binding

m11; m1 Sequoia:Y313A; Sequoia:I316A; Atg8a:K48Q
response (GST-Atg8a K48Q): 8 % Binding

m11; m1 Sequoia:Y313A; Sequoia:I316A; Atg8a:Y49A
response [1, 4]: 2.9 % Binding
